Laboratory results from patent publication US20260015403A1 (LENTIGEN TECHNOLOGY, published 2026).

T1: BCMA on BCMA-positive multiple myeloma tumor lines RPMI-8226 and MM1.S (human, UniProt Q02223 1-184)
T1 sequence (looked up): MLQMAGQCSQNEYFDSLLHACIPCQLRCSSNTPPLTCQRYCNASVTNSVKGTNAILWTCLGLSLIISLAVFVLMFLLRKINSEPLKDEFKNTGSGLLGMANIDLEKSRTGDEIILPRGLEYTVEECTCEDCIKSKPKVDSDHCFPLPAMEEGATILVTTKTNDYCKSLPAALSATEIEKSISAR

T2: recombinant human BCMA (ectodomain)-Fc (human, UniProt Q02223 1-54)
T2 construct: extracellular domain; also called BCMA-Fc; BCMA-Fc peptide; not shown: Fc part
T2 sequence (looked up): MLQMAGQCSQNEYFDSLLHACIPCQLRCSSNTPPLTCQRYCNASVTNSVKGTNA

B1: BCMA CAR construct with ScFv sequence 39 (MTB-39) (other, not shown: large carriers)
chain: EVQLVESGGGVVQPGGSLRLSCAASGFTFSGYGMHWVRQAPGKGLEWVAFIRYDGSNKYYADSVKGRFTISRDNSKNTLYLQMNSLRAEDTAVYYCARDGARNDYWGQGTLVTVSSGGGGSGGGGSGGGGSNFMLTQPHSVSESPGKTVTISCTRSSGSIASNYVQWYQQRPGSAPTTVIYEDNQRPSGVPDRFSGSIDSSSNSASLTISGLKTEDEADYYCQTYDDNNHVIFGGGTQLTVLG
B2: CAR D0086 (Ef1a-BCMA sequence 37 CD8 BBz) (other)
chain: EVQLVESGGGLVKPGGSLRLSCAASGFTFSSYGMHWVRQAPGKGLEWVAFIRYDGSNKYYADSVKGRFTISRDNSKNTLYLQMNSLRAEDTAVYYCAKDWEYSGYDAHPGWGQGTLVTVSSGGGGSGGGGSGGGGSDIQLTQSPSSLSASVGDRVTITCRASQGISSALAWYQQKPGKAPKLLIYDASSLESGVPSRFSGSGSGTEFTLTISSLQPEDFATYFCQQTYSPPITFGQGTRLEIKRAAATTTPAPRPPTPAPTIASQPLSLRPEACRPAAGGAVHTRGLDFACDIYIWAPLAGTCGVLLLSLVITLYCKRGRKKLLYIFKQPFMRPVQTTQEEDGCSCRFPEEEEGGCELRVKFSRSADAPAYQQGQNQLYNELNLGRREEYDVLDKRRGRDPEMGGKPRRKNPQEGLYNELQKDKMAEAYSEIGMKGERRRGKGHDGLYQGLSTATKDTYDALHMQALPPR
B3: BCMA CAR construct with ScFv sequence 50 (MTB-50) (other, not shown: large carriers)
chain: EVQLVQSGGGVVRPGGSLRLSCAASGFTFSTYEMNWVRQAPGKGLEWLAYIGGSGSPIYYADSVRGRFTISRDNTKNSLFLQMSSLRAEDTAVYYCVEGWFDKWGLGTLVTVSSGGGGSGGGGSGGGGSDIQLTQSPSTLSASVGDRVTITCRASQSISSYLNWYQQKPGKAPKLLIYDASNLETGVPSRFSGSGSGTDFTLTISSLQPEDFATYYCQQSYSTPYTFGQGTKLEIKR
B4: BCMA CAR construct with ScFv sequence 2 (MTB-2) (other, not shown: large carriers)
chain: EVQLVQSGGGLVQPGGSLRLSCAASGFTFSSYWMSWVRQAPGKGLEWVSGINGSGDRTYYADSVKGRFTISRDNSKNTLYLQMNSLRAEDTAVYYCANYNYDDNSGYGLGQGTLVTVSSGGGGSGGGGSGGGGSQSVLTQPPSVSVAPGKTARITCGGNNIGSKSVHWYQQKPGQAPVLVIYDDSDRPSGIPERFSGSNSGNTATLTISRVEAGDEADYYCQVWDSSSDHWVFGGGTKVTVLG
B5: CAR D0087 (Ef1a-BCMA sequence 40 CD8 BBz) (other)
chain: EVQLVQSGGGVVQPGGSLRLSCAASGFTFSSYGMHWVRQAPGKGLEWVAFIRYDGSNKYYADSVKGRFTISRDNSKNTLYLQMNSLRAEDTAVYYCAKEPPEYYYDSSGYSWGQGTLVTVSSGGGGSGGGGSGGGGSDIQLTQSPSSLSASVGDRVTITCQASQDIDTYLNWYQQKPGKAPKLLIYAASSLQSGVSSRFSGSGSGTEFTLTISSLQPEDFATYFCQQTYSPPITFGQGTRLEIKRAAATTTPAPRPPTPAPTIASQPLSLRPEACRPAAGGAVHTRGLDFACDIYIWAPLAGTCGVLLLSLVITLYCKRGRKKLLYIFKQPFMRPVQTTQEEDGCSCRFPEEEEGGCELRVKFSRSADAPAYQQGQNQLYNELNLGRREEYDVLDKRRGRDPEMGGKPRRKNPQEGLYNELQKDKMAEAYSEIGMKGERRRGKGHDGLYQGLSTATKDTYDALHMQALPPR
B6: CAR D0085 (Ef1a-BCMA sequence 16 CD8 BBz) (other)
chain: EVQLVQSGGGVVQPGGSLRLSCAASGFTFSSYGMHWVRQAPGKGLEWVAFIRYDGSNKYYADSVKGRFTISRDNSKNTLYLQMNSLRAEDTAVYYCARDLNDYGDPPPYWGQGTLVTVSSGGGGSGGGGSGGGGSDIQMTQSPSSLSASVGDRVTITCRASQSISSYLNWYQQKPGKAPKLLIYDASNLETGVSSRFSGSGSGTEFTLTISSLQPEDFATYFCQQTYSPPITFGQGTRLEIKRAAATTTPAPRPPTPAPTIASQPLSLRPEACRPAAGGAVHTRGLDFACDIYIWAPLAGTCGVLLLSLVITLYCKRGRKKLLYIFKQPFMRPVQTTQEEDGCSCRFPEEEEGGCELRVKFSRSADAPAYQQGQNQLYNELNLGRREEYDVLDKRRGRDPEMGGKPRRKNPQEGLYNELQKDKMAEAYSEIGMKGERRRGKGHDGLYQGLSTATKDTYDALHMQALPPR
B7: BCMA CAR construct with ScFv sequence 28 (MTB-28) (other, not shown: large carriers)
chain: QVQLVESGGGVVQPGGSLRLSCAASGFTFSSYGMHWVRQAPGKGLEWVAFIRYDGSNKYYADSVKGRFTISRDNSKNTLYLQMNSLRAEDTAVYYCARDSYSSSGDPRAFDPWGQGTLVTVSSGGGGSGGGGSGGGGSNFMLTQPHSVSESPGKTVTISCTGSSGSIASNYVQWYQQRPGSAPSTVIFEDNQRPSGVPGRFSGSVDRSSNSASLTISGLKTEDEADYYCQSYDSNNRGLFGGGTKVTVLG
B8: CAR D0099 (Ef1a-BCMA sequence 4-12 CD8 BBz) (other)
chain: QVQLVQSGGGVVQPGGSLRLSCAASGFTFSSYVIHWVRQAPGKGLEWVAAISHDGSNKYYADSVKGRFTISRDNSKNTLYLQMSSLSAEDTAMYYCVKTSSDYYYAYWGQGTLVTVSSGGGGSGGGGSGGGGSQTVVTQEPSFSVSPGGTVTLTCGLSSGSVSTGNSPTWYQQTPGQAPRTLIYSTNTRSSGVPDRFSGSILGNKAALTITGAQADDESDYYCVLYMGSGYWVFGGGTKVTVLGAAATTTPAPRPPTPAPTIASQPLSLRPEACRPAAGGAVHTRGLDFACDIYIWAPLAGTCGVLLLSLVITLYCKRGRKKLLYIFKQPFMRPVQTTQEEDGCSCRFPEEEEGGCELRVKFSRSADAPAYQQGQNQLYNELNLGRREEYDVLDKRRGRDPEMGGKPRRKNPQEGLYNELQKDKMAEAYSEIGMKGERRRGKGHDGLYQGLSTATKDTYDALHMQALPPR
B9: BCMA CAR construct with ScFv sequence 49 (MTB-49) (other, not shown: large carriers)
chain: EVQLVESGGGVVQPGRSLRLSCAASGFTFSSYGMHWVRQAPGKGLEWVAFIRYDGSNKYYADSVKGRFTISRDNSKNTLYLQMNSLRAEDTAVYYCVSDDYGGNSGTSYWGQGTLVTVSSGGGGSGGGGSGGGGSDIQMTQSPSSLSASVGDRVTITCQASQDISNYLNWYQQKPGKAPKLLIYDASNLETGVPSRFSGSGSGTDFTLTISSLQPEDFATYYCQQSYSTPVTFGGGTKLTVLG
B10: BCMA CAR construct with ScFv sequence 14 (MTB-14) (other, not shown: large carriers)
chain: B9 chain
B11: BCMA CAR construct with ScFv sequence 3 (MTB-3) (other, not shown: large carriers)
chain: EVQLVESGGGVVQPGGSLRLSCAASGFTFSSYGMHWVRQAPGKGLEWVAFIRYDGSNKYYADSVKGRFTISRDNSKNTLYLQMNSLRAEDTAVYYCAKDDYGGNSEGDYWGQGTLVTVSSGGGGSGGGGSGGGGSEIVLTQSPATLSVSLGERATLSCRASQSVSNSLAWYQQKPGQAPRLLIYDASTRATGIPARFSGSGSGTEFTLTISSLQPEDFATYFCQQTYSPPITFGQGTRLEIKR
B12: CAR D0100 (Ef1a-BCMA sequence 4-45 CD8 BBz) (other)
chain: EVQLVQSGAEVKKPGASVKVSCKASGYTSTSYYMHWVRQAPGQGLEWMGIINPSGGSTSYAQKFQGRVTMTRDTSTSTVYMELSSLRSEDTAVYYCARDLGDGAFDIWGQGTMVTVSSGGGGSGGGGSGGGGSDIQMTQSLSSLSASVGDRVTIACRASQTISRYLNWYQQKPGKAPKLLIYAASSLQSGVSSRFSGSGSGTEFTLTISSLQPEDFATYFCQQTYSPPITFGQGTRLEIKRAAATTTPAPRPPTPAPTIASQPLSLRPEACRPAAGGAVHTRGLDFACDIYIWAPLAGTCGVLLLSLVITLYCKRGRKKLLYIFKQPFMRPVQTTQEEDGCSCRFPEEEEGGCELRVKFSRSADAPAYQQGQNQLYNELNLGRREEYDVLDKRRGRDPEMGGKPRRKNPQEGLYNELQKDKMAEAYSEIGMKGERRRGKGHDGLYQGLSTATKDTYDALHMQALPPR
B13: CAR D0153 (BCMA 4-1c CD8 BBz) (other)
chain: EVQLVETGGGVVQPGGSLRLSCAASGFTFSSYGMHWVRQAPGKGLEWVAFIRYDGSNKYYADSVKGRFTISRDNSKNTLYLQMNSLRAEDTAVYYCAKDWDTYYYDSSGYDRAWGQGTLVTVSSGGGGSGGGGSGGGGSDIQMTQSPSSLSASVGDRVTITCQASQDINNYLNWYQQKPGKAPKLLIYAASSLQSGVSSRFSGSGSGTEFTLTISSLQPEDFATYFCQQTYSPPITFGQGTRLEIKRAAATTTPAPRPPTPAPTIASQPLSLRPEACRPAAGGAVHTRGLDFACDIYIWAPLAGTCGVLLLSLVITLYCKRGRKKLLYIFKQPFMRPVQTTQEEDGCSCRFPEEEEGGCELRVKFSRSADAPAYQQGQNQLYNELNLGRREEYDVLDKRRGRDPEMGGKPRRKNPQEGLYNELQKDKMAEAYSEIGMKGERRRGKGHDGLYQGLSTATKDTYDALHMQALPPR
notes: Chimeric antigen receptor on transduced human primary T cells; also called D153; CAR D153

target: T1, BCMA on BCMA-positive multiple myeloma …; experiment: cell-based or functional assay

B1 and B2 cannot be ordered by “tumor lysis of RPMI-8226-luc, luciferase-based killing assay, E:T 5” value (“tumor lysis of RPMI-8226-luc” below): greater than 40% for the first, greater than 40% for the second.

B3 and B4 cannot be ordered by “tumor lysis of RPMI-8226-luc” value: greater than 40% for the first, no more than 40% for the second.

B5 and B6 cannot be ordered by “tumor lysis of RPMI-8226-luc” value: greater than 40% for the first, greater than 40% for the second.

B7 and B8 cannot be ordered by “tumor lysis of RPMI-8226-luc” value: greater than 40% for the first, greater than 40% for the second.

B9 and B10 cannot be ordered by “tumor lysis of RPMI-8226-luc” value: greater than 40% for the first, greater than 40% for the second.

B11 and B12 cannot be ordered by “tumor lysis of RPMI-8226-luc” value: greater than 40% for the first, greater than 40% for the second.

target: T2, recombinant human BCMA (ectodomain)-Fc; experiment: flow cytometry of transduced T cells; staining with recombinant human BCMA Fc chimera then anti-Fc-Alexa Fluor 647 (method in paragraph 320)
Description: To assess the cell surface expression of BCMA CARs, 0.5-1e6 CAR T-cells were resuspended in FACs buffer (Miltenyi Biotec's autoMACS Rinsing Solution+MACS BSA Stock Solution) and incubated with 0.5 ug of recombinant human BCMA Fc Chimera Protein (RNDsystems) for 20 mins at 4° C. Cells were washed twice and re-suspended in FACs buffer and incubated for 20 mins at 4° C. with anti-Fc-Alexa Fluor 647 at 1:200 dilution. Cells were again washed twice and resuspended in FACs buffer and incubated for 20 mins at 4° C. with anti-CD4-Vioblue or anti-CD8-Viogreen (Miltenyi Biotec) at 1:50 dilution and 7AAD at 1:20 dilution. Cells were subsequently washed and analyzed using the MACSQuant® Analyzer 10 flow cytometer (Miltenyi Biotec).

B13: binds.
